Measurements: the supplement of paper PMC7125110
± gives the standard error. Fewer inactive variants are shown than the library holds.

B1: glmS ribozyme (parent)
chain: AUAAAAGCGCCAGAACUACAGAAAUGUAGUUGACGAGGAGGAGGUUUAUCGAAUUUUCGGCGGAUGCCUCCAAA

Key:
Conditions in all cases: with glucosamine-6-phosphate
glucosamine-6-phosphate [1] = variants of: B1; assay: self-cleavage kobs at 160 uM GlcN6P; higher = faster cleavage; RNA array
Outline: (§1)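 Sequenced MiSeq chips were the platform: E. coli RNA polymerase transcribed barcoded ribozyme variants on them in situ, and a hybridised Cy3 probe tracked these at 37 °C. After glucosamine-6-phosphate (40 μM to 10 mM) in HEPES/KCl/Mg(OAc)2 buffer was flowed in, tiles were imaged over ~14 h. Signals normalised to baseline and to non-cleaving reference variants were reduced to per-tile medians and fit to one- or two-exponential decays to obtain kobs. kcat and KM were derived through weighted Michaelis–Menten fits across concentrations.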

glucosamine-6-phosphate [2] = variants of: B1; assay: self-cleavage kobs at 2500 uM GlcN6P; higher = faster cleavage; RNA array
Outline: as §1

glucosamine-6-phosphate [3] = variants of: B1; assay: self-cleavage kobs at 640 uM GlcN6P; higher = faster cleavage; RNA array
Outline: as §1

glucosamine-6-phosphate [4] = variants of: B1; assay: self-cleavage kobs at 10000 uM GlcN6P; higher = faster cleavage; RNA array
Outline: as §1

Row | Variant | self-cleavage kobs at 160 uM GlcN6P (glucosamine-6-phosphate [1]) [s⁻¹] | self-cleavage kobs at 2500 uM GlcN6P (glucosamine-6-phosphate [2]) [s⁻¹] | self-cleavage kobs at 640 uM GlcN6P (glucosamine-6-phosphate [3]) [s⁻¹] | self-cleavage kobs at 10000 uM GlcN6P (glucosamine-6-phosphate [4]) [s⁻¹]
1 | A6U C10G A52G U56G | < 1e-05 | < 1e-05 | – | –
2 | A6U G38C A64U G66U | < 1e-05 | < 1e-05 | < 1e-05 | –
3 | U30C A36C C50G G59C | 0.000229 ± 9.7e-05 | – | – | –
4 | A12G G44C | < 1e-05 | < 1e-05 | < 1e-05 | –
5 | G37C U46A C68A | < 1e-05 | – | – | –
6 | G7U A33C C67A C68U | < 1e-05 | < 1e-05 | – | –
7 | A6C G9A U45A | < 1e-05 | – | < 1e-05 | –
8 | A33C G41C G60A | < 1e-05 | < 1e-05 | < 1e-05 | –
9 | C8A C11U C50G A53U G63A | 0.00012 ± 2.8e-05 | 9.63e-05 ± 3.3e-05 | 0.000594 ± 0.00015 | –
10 | G38C G41A G51U | < 1e-05 | < 1e-05 | – | –
11 | G44C G62C G66A | < 1e-05 | – | < 1e-05 | –
12 | G7U G13C G35U G37A | < 1e-05 | < 1e-05 | – | –
13 | A14U A15G U49A A53U | < 1e-05 | – | – | < 1e-05
14 | A12U C34U | < 1e-05 | – | < 1e-05 | < 1e-05
15 | A33G G37U C50G | 6.35e-05 ± 3.1e-05 | 0.000141 ± 4.1e-05 | – | –
16 | A14G A53C | 0.00202 ± 0.00065 | 0.01 ± 0.0023 | 0.00488 ± 0.0012 | 0.0384 ± 0.016
17 | G40C U46A A64G C70A | < 1e-05 | – | – | –
18 | G29A G32C A33U G60C G66U | < 1e-05 | – | – | < 1e-05
19 | G9U A48U | < 1e-05 | < 1e-05 | – | < 1e-05
20 | G38C G44U C67G | < 1e-05 | – | – | < 1e-05
21 | A14G G51U | < 1e-05 | – | – | –
22 | C11G G37C G40A U45A C70U | < 1e-05 | – | – | –
23 | A12G G59C G63C C67A | < 1e-05 | < 1e-05 | < 1e-05 | –
24 | G62A G63U C67U | < 1e-05 | – | < 1e-05 | –
25 | C10G A39U | < 1e-05 | – | < 1e-05 | –
26 | U31G G35A C67A | < 1e-05 | – | < 1e-05 | –
27 | A15C G32U G35U | < 1e-05 | < 1e-05 | – | –
28 | C10U C34G | < 1e-05 | < 1e-05 | < 1e-05 | < 1e-05
29 | G13A A33G G63C | < 1e-05 | < 1e-05 | – | –
